# Assay results: US20140099280A1
# T1: whole human interleukin 33 (IL-33aa1-270)
# T1 chain: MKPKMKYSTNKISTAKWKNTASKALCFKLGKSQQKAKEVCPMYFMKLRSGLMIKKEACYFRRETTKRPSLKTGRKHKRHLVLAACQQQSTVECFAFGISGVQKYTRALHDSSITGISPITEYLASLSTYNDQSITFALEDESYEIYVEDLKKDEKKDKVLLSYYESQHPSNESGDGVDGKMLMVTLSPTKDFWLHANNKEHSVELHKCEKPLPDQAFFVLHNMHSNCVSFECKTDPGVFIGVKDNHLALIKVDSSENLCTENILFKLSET
# T2: truncated human IL-33 (IL-33aa112-270)
# T2 chain: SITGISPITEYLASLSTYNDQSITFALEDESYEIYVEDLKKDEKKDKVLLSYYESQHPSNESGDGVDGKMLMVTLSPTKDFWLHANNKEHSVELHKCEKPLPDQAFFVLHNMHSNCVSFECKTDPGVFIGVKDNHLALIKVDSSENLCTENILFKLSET
# B1: human cathepsin G (protein)
# chain: IIGGRESRPHSRPYMAYLQIQSPAGQSRCGGFLVREDFVLTAAHCWGSNINVTLGAHNIQRRENTQQHITARRAIRHPQYNQRTIQNDIMLLQLSRRVRRNRNVNPVALPRAQEGLRPGTLCTVAGWGRVSMRRGTDTLREVQLRVQRDRQCLRIFGSYDPRRQICVGDRRERKAAFKGDSGGPLLCNNVAHGIVSYGKSSGVPPEVFTRVSSFLPWIRTTMRS
# B2: neutrophil elastase 2 (protein)
# chain: IVGGRRARPHAWPFMVSLQLRGGHFCGATLIAPNFVMSAAHCVANVNVRAVRVVLGAHNLSRREPTRQVFAVQRIFENGYDPVNLLNDIVILQLNGSATINANVQVAQLPAQGRRLGNGVQCLAMGWGLLGRNRGIASVLQELNVTVVTSLCRRSNVCTLVRGRQAGVCFGDSGSPLVCNGLIHGIASFVRGGCASGLYPDAFAPVAQFVNWIDSIIQ
# B3: leukocyte proteinase 3 (protein)
# chain: IVGGHEAQPHSRPYMASLQMRGNPGSHFCGGTLIHPSFVLTAAHCLRDIPQRLVNVVLGAHNVRTQEPTQQHFSVAQVFLNNYDAENKLNDVLLIQLSSPANLSASVATVQLPQQDQPVPHGTQCLAMGWGRVGAHDPPAQVLQELNVTVVTFFCRPHNICTFVPRRKAGICFGDSGGPLICDGIIQGIDSFVIWGCATRLFPDFFTRVALYVDWIRSTLR
# Biological target: ST2 receptor on murine MC/9 mast cells (murine (MC/9 mast cell line)) (UniProt P14719)
# Assay: cell-based or functional assay
# Chain of UniProt P14719 (P14719 27-567): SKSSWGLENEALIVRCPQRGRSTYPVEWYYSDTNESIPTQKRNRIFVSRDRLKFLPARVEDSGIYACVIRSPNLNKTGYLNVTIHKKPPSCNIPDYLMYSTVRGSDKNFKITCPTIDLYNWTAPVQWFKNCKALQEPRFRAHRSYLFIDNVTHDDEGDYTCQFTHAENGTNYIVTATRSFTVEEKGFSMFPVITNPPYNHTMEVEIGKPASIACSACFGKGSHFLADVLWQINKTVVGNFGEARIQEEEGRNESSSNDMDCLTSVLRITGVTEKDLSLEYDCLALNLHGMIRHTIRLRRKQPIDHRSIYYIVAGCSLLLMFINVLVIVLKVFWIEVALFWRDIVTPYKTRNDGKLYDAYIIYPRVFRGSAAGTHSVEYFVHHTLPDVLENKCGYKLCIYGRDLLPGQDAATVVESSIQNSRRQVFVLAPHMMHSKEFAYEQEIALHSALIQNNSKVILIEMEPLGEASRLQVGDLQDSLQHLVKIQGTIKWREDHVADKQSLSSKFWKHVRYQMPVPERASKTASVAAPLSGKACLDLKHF
row,Molecule,"secretion of IL-6 by MC/9 mast cells (ELISA), relative to whole IL-33 (fold vs whole IL-33)"
1,IL-33aa95-270 (from UniProt O95760 95-270) (ligand),4
2,IL-33aa109-270 (from UniProt O95760 109-270) (ligand),4
3,IL-33aa99-270 (from UniProt O95760 99-270) (ligand),4

# Biological target: T1, whole human interleukin 33 …
# Assay: not given
row,Molecule,"cleavage in vitro, SDS-PAGE and western blot"
1,B1,"Human IL-33 is the target of the recombinant proteases Cathepsin G (Cat G), Elastase 2 (Elastase), and Proteinase 3 (PR3), which generate, in vitro, the three mature fragments IL-33aa95-270, IL-33aa99-270 and IL-33aa109-270"
2,B2,"Human IL-33 is the target of the recombinant proteases Cathepsin G (Cat G), Elastase 2 (Elastase), and Proteinase 3 (PR3), which generate, in vitro, the three mature fragments IL-33aa95-270, IL-33aa99-270 and IL-33aa109-270"
3,B3,"Human IL-33 is the target of the recombinant proteases Cathepsin G (Cat G), Elastase 2 (Elastase), and Proteinase 3 (PR3), which generate, in vitro, the three mature fragments IL-33aa95-270, IL-33aa99-270 and IL-33aa109-270"

# Biological target: T2, truncated human IL-33 (IL-33aa112-270)
# Assay: not given
row,Molecule,"cleavage in vitro, western blot"
1,B1,"the truncated form IL-33aa112-270, which remains intact in the presence of these proteases"
2,B2,"the truncated form IL-33aa112-270, which remains intact in the presence of these proteases"
3,B3,"the truncated form IL-33aa112-270, which remains intact in the presence of these proteases"
